{
  "source": "paper PMC10556033",
  "assay": "eIF4E2 co-IP, 4E-T and GIGYF2 immunoblot",
  "details": "glycan lost; control: MEST cDNA (wild type)",
  "data": [
    {"protein": "mesoderm-specific transcript (MEST), also named PEG1: MEST N163Q (protein) parent chain: MVRRDRLRRMREWWVQVGLLAVPLLAAYLHIPPPQLSPALHSWKSSGKFFTYKGLRIFYQDSVGVVGSPEIVVLLHGFPTSSYDWYKIWEGLTLRFHRVIALDFLGFGFSDKPRPHHYSIFEQASIVEALLRHLGLQNRRINLLSHDYGDIVAQELLYRYKQNRSGRLTIKSLCLSNGGIFPETHRPLLLQKLLKDGGVLSPILTRLMNFFVFSRGLTPVFGPYTRPSESELWDMWAGIRNNDGNLVIDSLLQYINQRKKFRRRWVGALASVTIPIHFIYGPLDPVNPYPEFLELYRKTLPRSTVSILDDHISHYPQLEDPMGFLNAYMGFINSF", "values": [
      {"measurement": "other: eIF4E2-4E-T/GIGYF2 complex formation in cells", "value": "increases"}
    ]}
  ]
}
